Measurements: the supplement of paper PMC12042874
± gives the uncertainty stated by the source.

Assay: amyloid nucleation score (Sup35N fusion, yeast selection) (log enrichment); library NNK2; higher = more nucleation; inactive = no reads after selection
Procedure, shortened: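 Using DiMSum, nucleation scores were taken as the log enrichment of output over input reads, centred on the mode score of non-aggregating sequences. The input and output reads came from Illumina sequencing of plasmid inserts, with sequences under 100 input reads excluded. The yeast were psi-negative, expressed Sup35N fused to peptides of 20 random codons, were induced with 100 μM copper sulfate for 24 hours, and were grown 7 days at 30°C on medium lacking adenine and uracil.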

In order of falling amyloid nucleation score:
1. SWYVGLCMYVPWYERRANGH  11.04 ± 0.067
2. QEMYALACHVLTCCNLRNKR  9.866 ± 0.034
3. TLWVWVCCFQDWCSVSRGGR  8.892 ± 0.03
4. GESNMVYCLYQGTILSFAGW  8.379 ± 0.04
5. VLIVFNNPCFMGWALVDVVL  8.194 ± 0.053
6. DSSYVSVHRFCNFGYLIFCF  7.734 ± 0.064
7. SNLSLMFLLRVSIGDKKEEE  7.555 ± 0.034
8. QLNVSLNRLFLCGGSAELPS  7.55 ± 0.076
9. THVDFLWIVNLGGSHI  7.519 ± 0.041
10. VYVSYVAIFLPEPLVCDNVE  7.192 ± 0.04
11. YTHVNRWTCCSSIEICDWSY  6.957 ± 0.047
12. SCMCMEICINWNFRCIDGRG  6.66 ± 0.078
13. FDTLKLCSMWDLCCHITRVA  5.904 ± 0.044
14. YVLSYSCLDLYSIHL  5.64 ± 0.073
15. PSCRWKLHEMSTSSVQFWMK  5.59 ± 0.064
16. ATYIGRSNVSRWVVRAMSSS  5.25 ± 0.073
17. YMVGVSITMCCRATLNFSSM  5.21 ± 0.06
18. FGWGINRVYLVNM  5.04 ± 0.088
19. TEEWFFCPRLTLKFLKEVHK  4.94 ± 0.092
20. CNFVTILLGMN  4.85 ± 0.055
21. HWSADDNFSSLQRLFVYMGR  4.583 ± 0.043
22. VAHSVTGFQWHACSREMNFR  4.57 ± 0.12
23. FSRGDIVA  4.41 ± 0.056
24. YCMSYCRSTCYHQEFHGPAC  4.34 ± 0.072
25. LLLTLCSDHMLNGNVVGHDW  4.05 ± 0.049
26. MMNCNVLMDKSSCFRYIVWG  3.77 ± 0.051
27. CKLTATCQSQMTEIGLGSFA  3.62 ± 0.046
28. KYGTSIVTHGAVKDAKYCCR  3.44 ± 0.062
29. IQGPIVEFTISIRSSSRRHW  3.1 ± 0.083
30. RVGQGSEACFRSWSIAGPPY  2.8 ± 0.14
31. SMYNSHHSELVNWLNDYIWL  2.47 ± 0.1
32. IAMIVIQYTIRHCGSAEAVG  2.34 ± 0.19
33. SFRMKAALRRGNPNRAMDLT  2.33 ± 0.098
34. VAMVVRGTLYPALCPTYWVS  2.25 ± 0.11
35. VALQWMG  2.2 ± 0.19
36. MLPFNRSVPNAAFFIGMIGS  2.16 ± 0.076
37. EVGILVTVVYSGKWKVSRCM  1.87 ± 0.48
38. FDDEMVRCIFNYRLSGYRPL  1.47 ± 0.22
39. SACDGPGTQSRIVGWGHSCV  1.33 ± 0.27
40. GAHNMREGAAPGRKRVVLAM  1.22 ± 0.35
41. GKHIGSLSEWTMVHHDGARR  1.21 ± 0.32
42. YCGTVFHGSRRECGISVRGW  1.19 ± 0.33
43. FVLCT  1.15 ± 0.33
44. TRSRKWHRGS  1.14 ± 0.32
45. RSNDCDDLMDHVLWGYETYR  1.08 ± 0.66
46. VVSTESVNVI  0.889 ± 0.27
47. SSVLPGVRPGWNTMWWAACL  0.844 ± 0.39
48. STYSIIYV  0.831 ± 0.17
49. AFIRPIVSLVVLSQGV  0.827 ± 0.6
50. DLTCSC  0.804 ± 0.3
51. NRKTIIVEPTNACRS  0.775 ± 0.29
52. TRMVCSFRCQESVPEP  0.775 ± 0.8
53. DTRVSFRFMVTYLIMVYRFL  0.774 ± 0.22
54. QFEVNNLTPIGEEGGPKDCP  0.759 ± 0.43
55. FYRNPHR  0.706 ± 0.81
56. RLKAPLPYDEIFQLFVIGEI  0.698 ± 0.8
57. IVAFARVITLMRLLADGSTV  0.608 ± 0.54
58. SHVTGR  0.602 ± 0.34
59. RCPRSKLVIMDRASVLEGGR  0.559 ± 0.32
60. GSRPEWARVLGSLEIGCGAK  0.535 ± 0.3
61. GTKKARSGARQCLGWEILWM  0.516 ± 0.43
62. ILIMGMILNSMYV  0.516 ± 0.64
63. ESYLFAWDNGMFYIANDLEF  0.494 ± 0.8
64. VVYWRWTTPDLRVKAHGLFF  0.438 ± 0.5
65. NRCWGDHEV  0.435 ± 0.39
66. RPMLVVSGGTSVLWDWAASD  0.422 ± 0.64
67. DVMSSPGVSFITTVAFDVC  0.382 ± 0.8
68. LFGSKVHSSWRPSCLFTSAV  0.377 ± 0.33
69. SSLDNIWSTSD  0.337 ± 0.57
70. ETSFSTVRRQILSLLRLVSS  0.326 ± 0.33
71. LYQWSGLIKSVLNSGCGKVE  0.315 ± 0.54
72. ASITYNACLKPLQM  0.313 ± 0.64
73. YLDGYSSFTSFEKAMARRCG  0.305 ± 0.74
74. GTLPSGICSRKGMPT  0.283 ± 0.28
75. KLSGC  0.265 ± 1.1
76. MTKHV  0.241 ± 0.8
77. VVSILRLDSVGRVVIEAWVR  0.223 ± 0.77
78. VYHLLFSGC  0.219 ± 0.33
79. RTPTRILQAMLFYSRDHYSI  0.218 ± 0.8
80. IRGDNWMVCTTYTNSSFLRS  0.215 ± 0.57
81. YANMVRERINWI  0.198 ± 0.28
82. LFLRLVNQMVLLIKEWNVWG  0.196 ± 0.3
83. VVSKVLNKYF  0.189 ± 0.65
84. LTYRVCHEVQGQRYCMAREH  0.174 ± 0.74
85. SSVEAELICLWKFCTTHVCT  0.168 ± 0.56
86. VLCTYRGLDITL  0.166 ± 0.21
87. GTSIFHRKDGASTDMACQPF  0.14 ± 0.63
88. LNIQFGGSLHWKSGGVATEA  0.103 ± 0.28
89. LKIYLCIPHRRL  0.082 ± 1.1
90. TLETSNILFYGEDVKLSSQV  0.078 ± 0.34
91. VMVAYSLLGSRSSILLW  0.021 ± 0.32
92. SLMDLT  0.02 ± 0.54
93. KPIIGGVSTERSLVIAGVHL  0.011 ± 0.79
94. KYCHLWCEKGMELSALSEAV  0.001 ± 0.76
95. FMSLTSMLCNLRTNSCMCAR  -0.014 ± 0.21
96. MSWAVRDSIHRNYLKFVNRR  -0.02 ± 1.1
97. KMMTSSFRMDGVNSTLIWLI  -0.08 ± 1
98. YRIQKHWCQLS  -0.087 ± 0.76
99. TLLLDQCDSRVDFWSNVP  -0.088 ± 1.1
100. VLGWCCLVLSILLKCEKVGL  -0.095 ± 1.1
101. SCIYRE  -0.097 ± 0.21
102. MYLCTGFASSFIKSHHITWR  -0.098 ± 0.43
103. NLNPRCIACLQQPTFHMKMA  -0.101 ± 0.32
104. NCLEIQFWRLSSRYVGKFVM  -0.113 ± 0.32
105. VGGFRGRVTSHSPMRMCIQR  -0.114 ± 1
106. DFGKIGEWDWAGGVYLSAWR  -0.137 ± 1.1
107. DLHPGNSNAD  -0.146 ± 0.54
108. PVRCMIAHNCLIFWLVWTVV  -0.154 ± 0.25
109. SGFSVTNCGN  -0.155 ± 0.26
110. NCARH  -0.215 ± 0.3
111. WWETSIFFWEGIYT  -0.22 ± 0.8
112. PIIIDDLMYLGDVDLTMFGE  -0.234 ± 0.74
113. DINSQEVCSVTELGR  -0.247 ± 0.45
114. TRRARSDSDLMCRDRVSVDN  -0.249 ± 0.35
115. CLSRHAHRRRGMVYAGDYRA  -0.256 ± 0.49
116. NTNASDWRGAMLLSCMRFYS  -0.257 ± 0.42
117. GWLHMYY  -0.268 ± 0.36
118. VVHGIETIIVDPDRALVGDG  -0.356 ± 0.32
119. SNFQYSIKGQADRLPIVLVL  -0.373 ± 1
120. PKSLCYSTLTRGWCQM  -0.418 ± 1
121. GFSLNISKCVFLRFIWVFHF  -0.447 ± 1.1
122. RSWIFVSLIDCMEWILMNGS  -0.451 ± 1
123. LKYVLARCFRKCWYVLWTSA  -0.451 ± 0.54
124. TPIVGMLY  -0.477 ± 0.55
125. HWDQLV  -0.504 ± 0.78
126. GAHFYRTVMNVRSTLSRYIN  -0.507 ± 0.48
127. YQSDLTYLE  -0.518 ± 0.35
128. GIFIFNAFEEMSVGKDSELL  -0.529 ± 0.27
129. GGCSTRWHKDVYDNGDNGDF  -0.545 ± 0.63
130. SVYAGVLM  -0.555 ± 0.63
131. FLSRWSFPHGEFLLIRTLAG  -0.574 ± 0.3
132. NFCALSKCT  -0.618 ± 0.63
133. YYFWSTFGSYNYLIFCYSIL  -0.656 ± 1.1
134. WGLSRNSNIGHRVLIVAGNL  -0.683 ± 0.35
135. YRLFSRWAVVRFMGVGSLSF  -0.691 ± 0.56
136. RTNYWVIAWIYAFGS  -0.716 ± 1.1
137. NTMMGV  -0.724 ± 0.64
138. PCIGSQFFYSFGGLIK  -0.736 ± 0.35
139. FSAYLLLLYKN  -0.738 ± 0.76
140. GRAPLSNNLMDSVTVESVHM  -0.744 ± 0.28
141. DPLPMSYRVYSARSW  -0.81 ± 1
142. LAWLCRWGSVTYYCYSFGQV  -0.841 ± 0.62
143. DFESGWFSVDFVN  -0.853 ± 0.55
144. EVDVIS  -0.885 ± 0.64
145. PWWLWVGSMYENYGFAPFWV  -0.969 ± 0.3
146. YIDLLGRVCHYSLGWLCYCM  -1.05 ± 1.1
147. PILYGSNGVRFV  -1.05 ± 1.1
148. MGFLLRLCTYRCVVVIWGSI  -1.08 ± 0.43
149. LVRHFIHGSTA  -1.23 ± 0.49
150. SDIFRK  -1.27 ± 0.62
151. LCTIRFVNIFVCRMSKLNSH  -1.4 ± 0.62
152. FLIEFLWSMSACSAPVFLVF  -1.41 ± 1.1
153. YMSGILASIRKSILQGRSRE  -1.41 ± 0.49
154. YALVVLIWT  -1.43 ± 1.1
155. FNAERFLQSIEMVWWDKGFL  -1.53 ± 0.41
156. WYLYFFVFLLHMNRNLFLVL  -1.63 ± 0.55
157. RFICSAPAVPILIICWS  -1.65 ± 0.76

For FCHRRRYIFIWNIRCLSYLN, the amyloid nucleation score was “inactive”.
In the case of CMSNTMCAFVDGYNMHYLVD, the amyloid nucleation score is reported as “inactive”.
With DYDGTPGCVEKSTIIFMV the amyloid nucleation score was “inactive”.
For DIFCLRPYKLPGYTFYYFVY, the amyloid nucleation score was “inactive”.
In the case of HSWNV, the amyloid nucleation score is reported as “inactive”.
For NRSHCIVVQLLRCFGYVPYG, the amyloid nucleation score was “inactive”.
For RRQRWKRLTNF, the amyloid nucleation score was “inactive”.
In the case of MWMEVTRPPTGHFRIRGGQA, the amyloid nucleation score is reported as “inactive”.
For RKFFSIVRFCA, the amyloid nucleation score was “inactive”.
With NKVAKLDFFFLKGPAFRNKA the amyloid nucleation score was “inactive”.
For PSSFNSRFFCLVTNGWQYMS, the amyloid nucleation score was “inactive”.
With RYNLKQCL the amyloid nucleation score was “inactive”.
In the case of YSSPGSSPAFQRFGVVRRMN, the amyloid nucleation score is reported as “inactive”.
With LSYRRFFRLILKGAVG the amyloid nucleation score was “inactive”.
